The target of this assay is T1, cynomolgus integrin avb8 (cynomolgus).
T1 chain 1: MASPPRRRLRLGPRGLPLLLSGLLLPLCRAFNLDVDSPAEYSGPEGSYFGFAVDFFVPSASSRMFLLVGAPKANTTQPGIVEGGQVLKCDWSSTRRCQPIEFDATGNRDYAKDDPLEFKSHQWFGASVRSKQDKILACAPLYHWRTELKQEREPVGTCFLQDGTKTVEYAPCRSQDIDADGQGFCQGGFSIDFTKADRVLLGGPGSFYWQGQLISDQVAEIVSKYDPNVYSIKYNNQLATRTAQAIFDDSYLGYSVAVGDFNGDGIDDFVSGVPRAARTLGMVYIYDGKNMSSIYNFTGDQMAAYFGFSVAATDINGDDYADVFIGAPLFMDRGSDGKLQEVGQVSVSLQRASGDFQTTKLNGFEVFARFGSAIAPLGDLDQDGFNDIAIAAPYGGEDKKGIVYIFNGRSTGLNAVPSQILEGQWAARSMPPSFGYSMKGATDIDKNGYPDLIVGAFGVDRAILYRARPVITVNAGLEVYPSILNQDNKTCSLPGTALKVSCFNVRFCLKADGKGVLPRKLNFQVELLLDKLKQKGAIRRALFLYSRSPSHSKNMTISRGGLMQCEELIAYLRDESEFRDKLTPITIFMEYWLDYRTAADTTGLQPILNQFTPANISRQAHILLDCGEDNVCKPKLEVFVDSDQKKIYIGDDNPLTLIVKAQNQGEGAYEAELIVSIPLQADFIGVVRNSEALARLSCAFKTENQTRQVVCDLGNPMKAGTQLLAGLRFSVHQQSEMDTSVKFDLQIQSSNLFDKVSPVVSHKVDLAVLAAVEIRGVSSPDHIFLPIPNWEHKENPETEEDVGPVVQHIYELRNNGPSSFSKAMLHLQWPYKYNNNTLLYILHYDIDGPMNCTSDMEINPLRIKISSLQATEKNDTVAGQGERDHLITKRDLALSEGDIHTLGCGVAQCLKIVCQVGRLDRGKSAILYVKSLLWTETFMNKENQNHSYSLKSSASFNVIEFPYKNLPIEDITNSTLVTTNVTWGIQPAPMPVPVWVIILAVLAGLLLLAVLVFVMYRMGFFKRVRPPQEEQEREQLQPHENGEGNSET
T1 chain 2: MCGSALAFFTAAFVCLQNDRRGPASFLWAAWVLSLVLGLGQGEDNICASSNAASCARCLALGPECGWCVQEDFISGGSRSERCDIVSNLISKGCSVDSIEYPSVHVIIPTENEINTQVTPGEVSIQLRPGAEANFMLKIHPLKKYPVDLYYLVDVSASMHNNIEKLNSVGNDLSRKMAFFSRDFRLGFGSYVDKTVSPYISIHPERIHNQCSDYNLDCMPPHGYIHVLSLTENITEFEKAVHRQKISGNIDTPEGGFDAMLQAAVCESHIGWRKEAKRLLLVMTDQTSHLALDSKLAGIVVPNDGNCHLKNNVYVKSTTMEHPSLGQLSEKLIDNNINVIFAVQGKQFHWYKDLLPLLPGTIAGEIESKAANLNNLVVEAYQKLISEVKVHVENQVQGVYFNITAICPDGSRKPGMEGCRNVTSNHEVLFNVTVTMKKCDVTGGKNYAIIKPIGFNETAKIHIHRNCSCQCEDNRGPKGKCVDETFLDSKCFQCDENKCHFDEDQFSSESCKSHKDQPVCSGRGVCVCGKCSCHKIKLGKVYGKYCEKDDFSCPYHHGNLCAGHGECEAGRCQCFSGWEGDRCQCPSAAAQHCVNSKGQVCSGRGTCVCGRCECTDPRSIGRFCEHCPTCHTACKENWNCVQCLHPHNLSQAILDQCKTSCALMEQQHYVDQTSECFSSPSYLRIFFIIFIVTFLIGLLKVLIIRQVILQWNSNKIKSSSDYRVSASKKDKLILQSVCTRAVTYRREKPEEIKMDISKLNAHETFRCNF
Put plainly: SPR. (In general: SPR reads the build-up and loss of mass on a sensor chip optically.)

These results are taken from patent US20220289850 (published 2022).

By Kd is commonly meant the equilibrium constant for the complex coming apart. A high value points to weaker binding.

B1: ADWA11 2.4 Fab (antibody, V domains shown)
VH: EVQLVESGGGLVQPGGSLRLSCAASGFNIKDYYMNWVRQAPGKGLEWVGWIDPDQGNTIYEPKFQGRFTISADTSKNSAYLQMNSLRAEDTAVYYCARRLLMDYWGQGTLVTVSS
VL: DIQMTQSPSSLSASVGDRVTITCRSTKSLSHFNGNTYLFWYQQKPGKAPKRLIYYMSSLASGVPSRFSGSGSGTDFTLTISSLQPEDFATYYCQQSLEYPFTFGGGTKVEIK
B1 displayed a Kd of less than 0.1 nM.
